B1: Hammerhead Ribozyme (parent)
chain: ACCGGAUGUGCUUUCCGGUCUGAUGAGUCCGUGAGGACGAAACAG

Variants of: B1
Assay: self-cleavage, relative activity (ratio to wild type); higher = more cleavage; co-transcriptional

**Q.** For ACCGGAUGUGCUUUACGGUCUGAUCAGUCCGUGAGGACGAAACAG, which self-cleavage is on record?
**A.** 0.381

**Q.** For ACCGGAUGUGCUUUACGGUCUGAUAAGUCCGUGAGGACGAAACAG, which self-cleavage is on record?
**A.** 0.341

**Q.** With ACCGGAUGUGCUUGCCGGUCUGAUGAGUCCGUGAGAACGAAACAG as the variant, how does the self-cleavage read?
**A.** 0.729

**Q.** Which self-cleavage does the source give for ACCGGAUGUGCUUGCCGGUCUGAUGAGUCCGUGAGCACGAAACAG here?
**A.** 0.377

**Q.** For ACCGGAUGUGCUUGCCGGUCUGAUGAGUCCGUGAGUACGAAACAG, which self-cleavage is on record?
**A.** 0.565

**Q.** For ACCGGAUGUGCUUUACGGUCUGAUGAGUCAGUGAGGACGAAACAG, which self-cleavage is on record?
**A.** 0.782

**Q.** With ACCGGAUGUGCUUUACGGUCUGAUGAGUCGGUGAGGACGAAACAG as the variant, how does the self-cleavage read?
**A.** 0.557

**Q.** Which self-cleavage does the source give for ACCGGAUGUGCUUUACGGUCUGAUGAGUCUGUGAGGACGAAACAG here?
**A.** 1.01

**Q.** For ACCGGAUGUGCUUUACGGUCUGAUGAGUUCGUGAGGACGAAACAG, which self-cleavage is on record?
**A.** 0.753

**Q.** Which self-cleavage does the source give for ACCGGAUGUGCUUUACGGUCUGAUGAGUACGUGAGGACGAAACAG here?
**A.** 0.457

**Q.** Which self-cleavage does the source give for ACCGGAUGUGCUUUACGGUCUGAUGAGUGCGUGAGGACGAAACAG here?
**A.** 0.486

**Q.** With ACCGGAUGUGCUUGCCGGUCUGAUGAGUCCGUUAGGACGAAACAG as the variant, how does the self-cleavage read?
**A.** 0.678

**Q.** With ACCGGAUGUGCUUGCCGGUCUGAUGAGUCCGUAAGGACGAAACAG as the variant, how does the self-cleavage read?
**A.** 0.518

**Q.** For ACCGGAUGUGCUUGCCGGUCUGAUGAGUCCGUCAGGACGAAACAG, which self-cleavage is on record?
**A.** 0.528

**Q.** Which self-cleavage does the source give for ACCGGAUGUGCUUUACGGACUGAUGAGUCCGUGAGGACGAAACAG here?
**A.** 0.365

**Q.** For ACCGGAUGUGCUUUACGGCCUGAUGAGUCCGUGAGGACGAAACAG, which self-cleavage is on record?
**A.** 0.366

**Q.** For ACCGGAUGUGCUUUACGGGCUGAUGAGUCCGUGAGGACGAAACAG, which self-cleavage is on record?
**A.** 0.34

**Q.** Which self-cleavage does the source give for ACCGGAUGUGCUUUACGGUCUGAUGAGUCCGUGAGGACGAAACAG here?
**A.** 0.93

**Q.** With ACCGGAUGUGCUUUACGGUCUGAUGAGUCCGUGCGGACGAAACAG as the variant, how does the self-cleavage read?
**A.** 1.09

**Q.** Which self-cleavage does the source give for ACCGGAUGUGCUUUACGGUCUGAUGAGUCCGUGUGGACGAAACAG here?
**A.** 0.879

**Q.** With ACCGGAUGUGCUUUACGGUCUGAUGAGUCCGUGGGGACGAAACAG as the variant, how does the self-cleavage read?
**A.** 0.96

**Q.** With ACCGGAUGUGCUUUACGGUCUGAUGACUCCGUGAGGACGAAACAG as the variant, how does the self-cleavage read?
**A.** 0.435

**Q.** With ACCGGAUGUGCUUUACGGUCUGAUGAAUCCGUGAGGACGAAACAG as the variant, how does the self-cleavage read?
**A.** 0.589

**Q.** Which self-cleavage does the source give for ACCGGAUGUGCUUUACGGUCUGAUGAUUCCGUGAGGACGAAACAG here?
**A.** 0.4

**Q.** Which self-cleavage does the source give for ACCGGAUGUGCUUGCCGGUCUGAUGAGUCCGUGAGGACGAAACAA here?
**A.** 0.708

**Q.** With ACCGGAUGUGCUUGCCGGUCUGAUGAGUCCGUGAGGACGAAACAC as the variant, how does the self-cleavage read?
**A.** 0.879

**Q.** Which self-cleavage does the source give for ACCGGAUGUGCUUGCCGGUCUGAUGAGUCCGUGAGGACGAAACAU here?
**A.** 0.776

**Q.** With ACCGGAUGUGCUUUACGGUCUCAUGAGUCCGUGAGGACGAAACAG as the variant, how does the self-cleavage read?
**A.** 0.3

**Q.** With ACCGGAUGUGCUUUACGGUCUUAUGAGUCCGUGAGGACGAAACAG as the variant, how does the self-cleavage read?
**A.** 0.303

**Q.** Which self-cleavage does the source give for ACCGGAUGUGCUUUACGGUCUAAUGAGUCCGUGAGGACGAAACAG here?
**A.** 0.34

**Q.** Which self-cleavage does the source give for ACCGGAUGUGCUUUACGGUCUGAUGAGUCCGUGAGAACGAAACAG here?
**A.** 0.407

**Q.** With ACCGGAUGUGCUUUACGGUCUGAUGAGUCCGUGAGCACGAAACAG as the variant, how does the self-cleavage read?
**A.** 0.379

**Q.** With ACCGGAUGUGCUUUACGGUCUGAUGAGUCCGUGAGUACGAAACAG as the variant, how does the self-cleavage read?
**A.** 0.341

**Q.** With ACCGGAUGUGCUUUACGGUCUGAUGAGUCCGUGAGGACGAAAAAG as the variant, how does the self-cleavage read?
**A.** 0.341

**Q.** For ACCGGAUGUGCUUUACGGUCUGAUGAGUCCGUGAGGACGAAAUAG, which self-cleavage is on record?
**A.** 0.415

**Q.** For ACCGGAUGUGCUUUACGGUCUGAUGAGUCCGUGAGGACGAAAGAG, which self-cleavage is on record?
**A.** 0.337

**Q.** Which self-cleavage does the source give for ACCGGAUGUGCUUUACGGUCUGAUGAGUCCGUCAGGACGAAACAG here?
**A.** 0.953

**Q.** Which self-cleavage does the source give for ACCGGAUGUGCUUUACGGUCUGAUGAGUCCGUUAGGACGAAACAG here?
**A.** 0.893

**Q.** Which self-cleavage does the source give for ACCGGAUGUGCUUUACGGUCUGAUGAGUCCGUAAGGACGAAACAG here?
**A.** 0.921

**Q.** With ACCGGAUGUGCUUUACGGUCUGAUGAGUCCGUGAGGACAAAACAG as the variant, how does the self-cleavage read?
**A.** 0.337

**Q.** For ACCGGAUGUGCUUUACGGUCUGAUGAGUCCGUGAGGACCAAACAG, which self-cleavage is on record?
**A.** 0.366

**Q.** Which self-cleavage does the source give for ACCGGAUGUGCUUUACGGUCUGAUGAGUCCGUGAGGACUAAACAG here?
**A.** 0.353

**Q.** Which self-cleavage does the source give for ACCGGAUGUGCUUGCCGGUCUGAUGAGGCCGUGAGGACGAAACAG here?
**A.** 0.585

**Q.** With ACCGGAUGUGCUUGCCGGUCUGAUGAGACCGUGAGGACGAAACAG as the variant, how does the self-cleavage read?
**A.** 0.796

**Q.** With ACCGGAUGUGCUUGCCGGUCUGAUGAGCCCGUGAGGACGAAACAG as the variant, how does the self-cleavage read?
**A.** 0.602

**Q.** For ACCGGAUGUGCUUGCCGGUCUGAUGAGUCCGAGAGGACGAAACAG, which self-cleavage is on record?
**A.** 0.811

**Q.** Which self-cleavage does the source give for ACCGGAUGUGCUUGCCGGUCUGAUGAGUCCGCGAGGACGAAACAG here?
**A.** 0.653

**Q.** For ACCGGAUGUGCUUGCCGGUCUGAUGAGUCCGGGAGGACGAAACAG, which self-cleavage is on record?
**A.** 1.01

**Q.** With ACCGGAUGUGCUUUACGGUCUGAUGAGUCCGUGAGGACGUAACAG as the variant, how does the self-cleavage read?
**A.** 0.394

**Q.** With ACCGGAUGUGCUUUACGGUCUGAUGAGUCCGUGAGGACGCAACAG as the variant, how does the self-cleavage read?
**A.** 0.361

**Q.** With ACCGGAUGUGCUUUACGGUCUGAUGAGUCCGUGAGGACGGAACAG as the variant, how does the self-cleavage read?
**A.** 0.415

**Q.** With ACCGGAUGUGCUUUACGGUCUGAUGAGUCCGUGAGGACGAAACGG as the variant, how does the self-cleavage read?
**A.** 0.897

**Q.** Which self-cleavage does the source give for ACCGGAUGUGCUUUACGGUCUGAUGAGUCCGUGAGGACGAAACCG here?
**A.** 0.404

**Q.** For ACCGGAUGUGCUUUACGGUCUGAUGAGUCCGUGAGGACGAAACUG, which self-cleavage is on record?
**A.** 0.441

**Q.** For ACCGGAUGUGCUUUACGGUGUGAUGAGUCCGUGAGGACGAAACAG, which self-cleavage is on record?
**A.** 0.289

**Q.** Which self-cleavage does the source give for ACCGGAUGUGCUUUACGGUUUGAUGAGUCCGUGAGGACGAAACAG here?
**A.** 0.438

**Q.** Which self-cleavage does the source give for ACCGGAUGUGCUUUACGGUAUGAUGAGUCCGUGAGGACGAAACAG here?
**A.** 0.316
